T1: Abp1 SH3 (ABP1_YEAST), P15891
T1 chain: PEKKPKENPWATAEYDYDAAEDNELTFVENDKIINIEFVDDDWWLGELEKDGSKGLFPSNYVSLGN

The target of the test is T1, Abp1 SH3 (ABP1_YEAST), P15891. The experiment in a line: SPOT array.
The molecule AQLLNPNRRAPRRP [YJL128C 177-190] gave a normalised SPOT signal, Boehringer light units (BLU); mean over the file's lines of this peptide of 364.
In turn, AGDDEPGADEPARP [YOL073C 298-311] registered a normalised SPOT signal, Boehringer light units (BLU); mean over the file's lines of this peptide of 27.3.
Regarding AKSTRSSPQKAKP [YBR203W 447-459], the normalised SPOT signal, Boehringer light units (BLU); mean over the file's lines of this peptide was determined as 88.6.
In turn, AIDPPRRPHNVKP [YCL048W 27-39] gave a normalised SPOT signal, Boehringer light units (BLU); mean over the file's lines of this peptide of 2120.
Molecule ADQRKLFPNWIKP [YHR165C 1003-1015] returned a normalised SPOT signal, Boehringer light units (BLU); mean over the file's lines of this peptide of 456.
In turn, ADDSFIFPDEDKP [YNL103W 152-164] had a normalised SPOT signal, Boehringer light units (BLU); mean over the file's lines of this peptide of 61.8.
With APEIINDLNHPEKP [YEL070W 157-170], the normalised SPOT signal, Boehringer light units (BLU); mean over the file's lines of this peptide was 86.
ALKDFHSTLDPSKP [YOR251C 241-254]: the normalised SPOT signal, Boehringer light units (BLU); mean over the file's lines of this peptide was 91.9.
The value for AIIDRIPPPTGRP [YLR289W 219-231] was 132.
The molecule ASTLGITPADSKP [YMR016C 645-657] came in with a normalised SPOT signal, Boehringer light units (BLU); mean over the file's lines of this peptide of 93.1.
Turning to AAYNAKKAAKPAKP [YAL003W 104-117], the normalised SPOT signal, Boehringer light units (BLU); mean over the file's lines of this peptide is 109.
APKKWKAPKGPKP [YGL099W 6-18] registered a normalised SPOT signal, Boehringer light units (BLU); mean over the file's lines of this peptide of 332.
ALPLPAVFSAPIRP [YBR031W 19-32] yielded a normalised SPOT signal, Boehringer light units (BLU); mean over the file's lines of this peptide of 49.7.
AIKSIYSPSDKRP [YBR229C 581-593]: the normalised SPOT signal, Boehringer light units (BLU); mean over the file's lines of this peptide worked out at 351.
AKKEFDEKLPPKKP [YMR072W 106-119] yielded a normalised SPOT signal, Boehringer light units (BLU); mean over the file's lines of this peptide of 87.3.
As to AGGGIWGPMEKKP [YHR093W 43-55], the normalised SPOT signal, Boehringer light units (BLU); mean over the file's lines of this peptide was found to be 120.
Next, ASKLVEQHMAPPKP [YPL085W 1841-1854]: 122; ASNFVQRPVISKP [YDL145C 797-809]: 2410.
The value for ARTGYETPVKVRP [YCL055W 274-286] was 342; that for AQKDSSVVSEPKKP [YOR098C 642-655] was 99.8.
The molecule AQVVLIPAGVPRKP [YDL078C 69-82] registered a normalised SPOT signal, Boehringer light units (BLU); mean over the file's lines of this peptide of 53.3.
Next, APIPESPANSPTRP [YMR115W 51-64]: 190; ALKQKKIPPPFKP [YHR205W 678-690]: 5260.
Molecule ANVQNVIPDDSKP [YDR331W 298-310] came in with a normalised SPOT signal, Boehringer light units (BLU); mean over the file's lines of this peptide of 35.4.
Take AIRKENLPNLEKP [YDR150W 1608-1620]: the normalised SPOT signal, Boehringer light units (BLU); mean over the file's lines of this peptide is 72.3.
ASSFQLPPGVKKP [YPL019C 671-683]: the normalised SPOT signal, Boehringer light units (BLU); mean over the file's lines of this peptide stood at 143.
The value for ASLFPRDPKRLRP [YLL018C 545-557] was 1990.
In the case of ALNDSMFFPYPFKP [YGL131C 433-446], the normalised SPOT signal, Boehringer light units (BLU); mean over the file's lines of this peptide was determined as 138.
ALPTGAPPTTPSRP [YGR170W 87-100] registered a normalised SPOT signal, Boehringer light units (BLU); mean over the file's lines of this peptide of 92.1.
Molecule AIIYHHKAGDPFKP [YGR276C 328-341] had a normalised SPOT signal, Boehringer light units (BLU); mean over the file's lines of this peptide of 155.
On to ASSKLKKPPKAKP [YML059C 513-525], for which the normalised SPOT signal, Boehringer light units (BLU); mean over the file's lines of this peptide came out at 2150.
In turn, AGPKPSISLVPDKP [YLR189C 14-27] yielded a normalised SPOT signal, Boehringer light units (BLU); mean over the file's lines of this peptide of 233.
In turn, AISIFDMNLSPIKP [YKL108W 91-104] came in with a normalised SPOT signal, Boehringer light units (BLU); mean over the file's lines of this peptide of 40.2.
As for ASLRAGLPTVIKP [YLR189C 1077-1089], the normalised SPOT signal, Boehringer light units (BLU); mean over the file's lines of this peptide was 78.3.
The value for AEGNVKPWNPPQKP [YLR295C 56-69] was 160; that for AMLEEQVKSNPNRP [YGR234W 289-302] was 0; that for ANSVPIMPTLPPRP [YGL060W 533-546] was 112.
The molecule AKDPIRTPDAKKP [YLR226W 381-393] showed a normalised SPOT signal, Boehringer light units (BLU); mean over the file's lines of this peptide of 328.
The value for ANISTSDPDFYKP [YDR406W 122-134] was 99.2.
For the molecule AIAYDNAPYSPKP [YGL008C 735-747], the normalised SPOT signal, Boehringer light units (BLU); mean over the file's lines of this peptide was 173.
Molecule ASVEQFDLKMPSKP [YLR055C 485-498] returned a normalised SPOT signal, Boehringer light units (BLU); mean over the file's lines of this peptide of 112.
ALWEVGSGGDPTKP [YEL056W 186-199] registered a normalised SPOT signal, Boehringer light units (BLU); mean over the file's lines of this peptide of 80.3.
For the molecule ASSKMGAPWSVKP [YGL133W 239-251], the normalised SPOT signal, Boehringer light units (BLU); mean over the file's lines of this peptide turned out to be 146.
The molecule AHLSAADPDFYKP [YOR153W 112-124] returned a normalised SPOT signal, Boehringer light units (BLU); mean over the file's lines of this peptide of 94.4.
With APLNLDNPSSERP [YPL012W 496-508], the normalised SPOT signal, Boehringer light units (BLU); mean over the file's lines of this peptide is 103.
Take ALDGSSKPFKVKP [YLR392C 95-107]: the normalised SPOT signal, Boehringer light units (BLU); mean over the file's lines of this peptide was 223.
The value for ASSAELRPLLERP [YDL129W 167-179] was 78.5.
Consider ASSSPFIPKKRKP [YLR430W 2217-2229], for which the normalised SPOT signal, Boehringer light units (BLU); mean over the file's lines of this peptide turned out to be 2110.
The value for APIIGSPRHAPSRP [YOL138C 1118-1131] was 8310; that for ASQPEPTTNEPAKP [YJL041W 251-264] was 114; that for ALFGFRDPNGIRP [YMR300C 181-193] was 102.
On to ASIVVIPAGVPRKP [YOL126C 141-154], for which the normalised SPOT signal, Boehringer light units (BLU); mean over the file's lines of this peptide amounted to 199.
The value for ASTYGRSPSGFRP [YKR089C 707-719] was 517; that for AMIAHLSPHNARP [YJR124C 130-142] was 464.
